Results reported in patent US20230127123A1 (Dana-Farber, published 2023).
Numbering of substitutions follows the chain as printed.

B1: 1D2 (antibody, V domains shown)
VH: QVQLVQSGAEVKKPGSSVKVSCKASGGTFSSYAISWVRQAPGQGLEWMGGIIPIFGTANYAQKFQGRVTITADESTSTAYMELSSLRSEDTAVYYCARDGSGYDSAGMDDWGQGTLVTVSS
VL: QPGLTQPPSASGTPGQTVTISCSGSRSNIGSNYVYWYQQFPGTAPKLLIFSNNQRPSGVPDRFSGSKSGTSASLAISGLRSEDEADYYCAVWDDSLSGVVFGGGTKLTVL
notes: anti-PD-L1 clone; also called Ab 1D2
B2: 1G1 (antibody, V domains shown)
VH: EVQLVQSGAEVKKPGSSVRVSCKASGGTFSSYAISWVRQAPGQGLEWMGRIIPILGIANYAQKFQGRVTITADKSTSTAYMELSSLRSEDTAVYYCASGSIVGAAYAFDIWGQGTTVTVSS
VL: QSVLTQPPSVSVAPGKAANLNCGGKNIGGRVVHWYQQRPGQAPVLVIYDDTDRPSGIPERFSGSNSGNTATLTITDVEVGDEADYYCQVWDSRSDHPVFGGGTTLTVL
notes: anti-PD-L1 clone; also called Ab 1G1
B3: 1D4 (antibody, V domains shown)
VH: QVQLVQSGGGVVQPGRSLRLSCAASGFTFSSYAIHWVRQAPGKGLEWITTISYDGSNKYYADSVKGRFTISRDNPKNTLYLQMNSLRAEDTAVYYCARGFGGPDYWGQGTLVTVSS
VL: LPVLTQPSSLSASPGASASLTCTLRSGINVGTYRIYWYQQKPGSPPQYLLRYKSDSDKQQGSGVPSRFSGSKDASANAGILLISGLQSEDEADYYCMIWHSSAYVFGTGTKVTVL
notes: anti-PD-L1 clone; also called Ab 1D4
B4: 1H5 (antibody, V domains shown)
VH: QVQLVQSGAEVKKPGSSVKVSCKASGGTFSRYALTWVRQAPGQGLEWMGGIIPIFGRANYAQKFQGRVTITADKSTSTAYMELGSLTSDDTAVYYCAEEGAFNSLAIWGQGTMVTVSS
VL: NFMLTQPHSVSGSPGETVTISCTRSSGSIASHFVQWYQQRPGSSPTTVIFGDDQRPSGVPDRISGSIDTSSNSASLSISGLKTEDEADYYCQSYDSSNHVVFGGGTKLTVL
notes: anti-PD-L1 clone; also called Ab 1H5
B5: 1A6 (antibody, V domains shown)
VH: QVQLVQSGGEVKKPGASVKVSCKASGYTLSSHGITWVRQAPGQGLEWMGWISAHNGHASNAQKVEDRVTMTTDTSTNTAYMELRSLTADDTAVYYCARVHAALYYGMDVWGQGTLVTVSS
VL: QSVLTQPPSVSVAPGQTARITCGGNNIGSKGVHWYQQKPGQAPVLVVYDDSDRPSGIPERFSGSNSGNTATLTISRVEAGDEADYYCQVWDSSSDHWVFGGGTKLTVL
notes: anti-PD-L1 clone; also called Ab 1A6
B6: 1A2 (antibody, V domains shown)
VH: B5 VH with L115T
VL: B5 VL
notes: anti-PD-L1 clone; also called Ab 1A2
B7: 1A3 (antibody, V domains shown)
VH: B5 VH with Q1E, G9A, A88P
VL: B5 VL with Q1L, S2P, G31S
notes: anti-PD-L1 clone; also called Ab 1A3
B8: 1C6 (antibody, V domains shown)
VH: B5 VH with A88P
VL: B5 VL with Q1L, S2P, G31S, S75N
notes: anti-PD-L1 clone; also called Ab 1C6
B9: 1F1 (antibody, V domains shown)
VH: B5 VH with A88P
VL: B5 VL with S2P, N25D, Y35L, S51R, N68S
notes: anti-PD-L1 clone; also called Ab 1F1
B10: 1D1 (antibody, V domains shown)
VH: B5 VH with G9A, L29F, S30T, H32Y, T35S, H54Y, S85N, A88T, L115T
VL: B5 VL with Q1S, S2Y, V3E, N25D, K38T, N65K, S93R, K104R, L105V
notes: anti-PD-L1 clone; also called Ab 1D1
B11: 1B4 (antibody, V domains shown)
VH: QVQLVQSGGGLVKPGGSLRLSCVGSDFAFSSAWMNWVRQAPGKGLEWVGRIKSKTDGETTDYAAPVKDRFIISRDDSKNTLYLEMNSLKTEDTGVYYCTTGGLGLVYPYYNYIDVWGEGTTVTVSS
VL: LPVLTQPPSASGTPGQRVTISCSGSSSNIGSNYVYWYQQLPGTAPKLLIYRNNQRPSGVPDRFSGSKSGTSASLAISGLRSEDEADYYCAAWDDSLNGLVFGTGTRVTVL
notes: anti-PD-L1 clone; also called Ab 1B4
B12: 1C4 (antibody, V domains shown)
VH: B4 VH
VL: NFMLTQPHSVSESPGKTVTISCTRSSGSIASNYVQWYQQRPGSAPTTVIFADNQRPSGVPARFSGSIDSSSNSASLTISGLKTEDEADYYCQSYDSSNHWVFGGGTQLTVL
notes: anti-PD-L1 clone; also called Ab 1C4
B13: 1C1 (antibody, V domains shown)
VH: QVQLVQSGAEVKKPGASVKVSCKASGYTFTSYGISWVRQAPGQGLEWMGWTSPHNGLTAFAQILEGRVTMTTDTSTNTAYMELRNLTFDDTAVYFCAKVHPVFSYALDVWGQGTLVTVSS
VL: NFMLTQPHSVSESPGKTVTISCTRSSGSIASNYVQWYQQRPGSSPTTVIYEDNQRPSGVPDRFSGSIDTSSNSASLTISGLKTKDEADYYCQSYDGITVIFGGGTKLTVL
notes: anti-PD-L1 clone; also called Ab 1C1
B14: 1H2 (antibody, V domains shown)
VH: QVQLVQSGGGLVKPGGSLRLSCAASGFTFSSYSMNWVRQAPGKGLVWISRIISDGSATTYADSVKGRFTISRDNAKNTLYLQMNSLRAEDTGVYYCARDRSEGGFDPWGQGTLVTVSS
VL: SSELTQDPAVSVALGQTVRITCQGDSLRSYYASWYQQKPGQAPVLVIYGKNNRPSGIPDRFSGSTSGNTASLTITGAQAEDEADYYCNSRDISDNQWQWIFGGGTKLAVL
notes: anti-PD-L1 clone; also called Ab 1H2
B15: 14C61 (antibody, V domains shown)
VH: B5 VH with Q1E, A88P
VL: SYELTQPPSVSVAPRQTAKITCTRDNIESRSVNWYQQRAGQAPAVIVYDDTERPSGITVRYSGSNSGNTATLTISRVEAGDEADYYCQVWDSSGDLWVFGGGTKLTVL
notes: anti-PD-L1 clone; also called Ab 14C61
B16: 1E1. (antibody, V domains shown)
VH: QVQLVQSGVEMKKPGASVRVSCKGSGYTFSSYGISWVRQAPGQGLEWMGWISAHNGHASNAQKLEDRVTMTTDTSTNTAYMELRSLTSDDTAVYYCARVHGALYYGMDVWGQGTTVTVSS
VL: B5 VL with Q1S, S2Y, V3E, T21P, G24A, S29G, G31S, S51R
notes: anti-PD-L1 clone; also called Ab 1E1

Each binder was assayed against T1, PD-L1 (on 293T cells stably expressing PD-L1) (human, UniProt Q9NZQ7) (assay: flow cytometry on 293T cells stably expressing PD-L1, percent of cells labelled, anti-hFc secondary).
T1 construct: expressed on the surface of stably transfected 293T cells; also called CD274; B7-H1
T1 sequence (Q9NZQ7 19-290 limits assumed): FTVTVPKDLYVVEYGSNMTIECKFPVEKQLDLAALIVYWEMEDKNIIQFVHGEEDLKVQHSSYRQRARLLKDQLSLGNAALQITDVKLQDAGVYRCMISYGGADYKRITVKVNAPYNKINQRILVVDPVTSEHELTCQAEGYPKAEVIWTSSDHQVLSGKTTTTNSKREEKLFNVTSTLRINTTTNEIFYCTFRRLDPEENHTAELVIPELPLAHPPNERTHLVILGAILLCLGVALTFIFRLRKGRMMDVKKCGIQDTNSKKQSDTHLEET

Question: Which “EC50 (read off the curve)” value does the source give for B1 here?
Answer: The value was roughly 0.1 nM.

Question: Which “EC50 (read off the curve)” value does the source give for B2 here?
Answer: The value was roughly 0.05 nM.

Question: Which “EC50 (read off the curve)” value does the source give for B3 here?
Answer: Its value is 0.2 to 0.3 nM.

Each binder was assayed against PD-L1 (antigen of the kinetic measurements) (human, UniProt Q9NZQ7) (assay: kinetic measurements for aPDL1 antibodies; instrument and antigen format not stated).
Chain of PD-L1 (antigen of the kinetic measurements) (Q9NZQ7 19-238 limits assumed): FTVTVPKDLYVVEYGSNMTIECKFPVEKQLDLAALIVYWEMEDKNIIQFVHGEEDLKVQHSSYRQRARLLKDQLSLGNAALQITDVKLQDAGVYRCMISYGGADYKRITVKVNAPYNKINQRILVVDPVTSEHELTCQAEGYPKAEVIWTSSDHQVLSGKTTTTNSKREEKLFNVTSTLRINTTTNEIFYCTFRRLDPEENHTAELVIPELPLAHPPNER

Question: Which Kd does the source give for B1 here?
Answer: The Kd was 0.989 nM.

Question: And the koff?
Answer: Its koff is 0.00133 s⁻¹.

Question: And the kon?
Answer: Its kon is 1.35e+06 M⁻¹ s⁻¹.

Question: With B2 as the binder, how does the Kd read?
Answer: The Kd was 0.878 nM.

Question: Which Kd does the source give for B3 here?
Answer: Its Kd is 1.03 nM.

Question: How did the Kd turn out when B4 was run?
Answer: Its Kd is 0.287 nM.

Question: What about the koff of the same binder?
Answer: Its koff is 0.000367 s⁻¹.

Question: And the kon?
Answer: The kon was 1.28e+06 M⁻¹ s⁻¹.

Question: Which results are given for B5?
Answer: Kd: 913 nM; koff: 0.0113 s⁻¹; kon: 12400 M⁻¹ s⁻¹

Question: How did the Kd turn out when B6 was run?
Answer: The Kd was 0.679 nM.

Question: Which Kd does the source give for B7 here?
Answer: The Kd was 873 nM.

Question: And the koff?
Answer: Its koff is 0.0115 s⁻¹.

Question: And the kon?
Answer: The kon was 13100 M⁻¹ s⁻¹.

Question: How did the Kd turn out when B8 was run?
Answer: The Kd was 41.6 nM.

Question: What about the koff of the same binder?
Answer: Its koff is 0.01 s⁻¹.

Question: What about the kon of the same binder?
Answer: The kon was 241000 M⁻¹ s⁻¹.

Question: Which results are given for B9?
Answer: Kd: 0.461 nM; koff: 0.000338 s⁻¹; kon: 733000 M⁻¹ s⁻¹

Question: With B10 as the binder, how does the Kd read?
Answer: Its Kd is 0.609 nM.

Question: And the koff?
Answer: Its koff is 0.000745 s⁻¹.

Question: And the kon?
Answer: The kon was 1.22e+06 M⁻¹ s⁻¹.

Question: For B11, which Kd is on record?
Answer: Its Kd is 0.669 nM.

Question: What about the koff of the same binder?
Answer: The koff was 0.00124 s⁻¹.

Question: And the kon?
Answer: The kon was 1.85e+06 M⁻¹ s⁻¹.

Question: With B12 as the binder, how does the Kd read?
Answer: The Kd was 1.16 nM.

Question: What does the source list for B13?
Answer: Kd: 1.23 nM; koff: 0.000987 s⁻¹; kon: 802000 M⁻¹ s⁻¹

Question: How did the Kd turn out when B14 was run?
Answer: The Kd was 1.57 nM.

Question: For B15, which Kd is on record?
Answer: Its Kd is 1.91 nM.

Question: How did the Kd turn out when B16 was run?
Answer: Its Kd is 8.98 nM.

Question: And the koff?
Answer: Its koff is 0.00884 s⁻¹.

Question: And the kon?
Answer: The kon was 984000 M⁻¹ s⁻¹.
